# Source: patent publication US20140234868A1, “USE FOR GLYCOLIPOPROTEIN GINTONIN, ISOLATED AND IDENTIFIED FROM GINSENG, AS A NATURAL MEDICAL-PLANT DERIVED LIGAND” (KONKUK UNIVERSITY INDUSTRIAL COOPERATION CORP., priority 2011, published 2014)
# B1: gintonin: ginseng-derived glycolipoprotein; structural protein of ginseng major latex-like protein (MLP151) and ribonuclease-like storage proteins; crude gintonin used in tests (protein)
# chain 1: MGLTGKLICQTGIKSDGDVFHELFGTRPHHVPNITPANIQGCDLHEGEFGKVGSVVIWNYSIDGNAMIAKEEIVAIDEEDKSVTFKVVEGHLFEEFKSIVFSVHVDTKGEDNLVTWSIDYEKLNESVKDPTSYLDFLLSVTRDIEAHHLPK
# chain 2: RSDYPWAMFALRLQWPAGFCEVNNACDTKSLLNTFTIHGLYPYNAKGTPALYCDGTAFDVNSVSDFLAEMHLAWPSHETNTEDIQFWEHEWKKHGRCSEALLKQTDYFRTALAFRKAFDIVGLLNQEGIYPNNDLYRPKMIKEAIKKHLNAVPEIDFTKNENSEYVLTDINVCVNQQATRFVDCPTDDATDDYRLKFVRLPSKMKFADPRTNSII
# Assays:
# [1] = system: HUVECs; assay: Scratch wound healing in HUVEC monolayers; assay type: cell-based, human; details: gintonin 30 μg/ml, 20 hrs
# Method: In this Example, an examination was made of the effect of gintonin on wound healing. For use in this examination, HUVECs were cultured in an M199 medium supplemented with heat-inactivated 20% FBS, […] basic fibroblast growth factor, 5 units/ml heparin, and streptomycin and penicillin in a 5% […] incubator.
# HUVECs (2.5×10^5/well) were seeded to 24-well plates, and incubated for 24 hrs, and then for an additional 6 hrs in M199 supplemented with 1% FBS. Single wounds were made in the confluent monolayers by dragging a sterile 200-μl pipette tip across the monolayer to create a cell-free path. Floating cells were washed off twice with M199 supplemented with 1% FBS. The adherent cells were incubated with gintonin (30 μg/ml). Before and after treatment with gintonin, HUVECs in each well were observed and photographed (100×) using an inverted fluorescence microscope (AxioVert200; Carl Zeiss, Germany). Morphological comparison with non-treated cells was made.
# In the assay for wound healing of gintonin, uncovered wound areas were measured using AxioVision 4 (Carl Zeiss, Germany) (FIG. 26A), and the time process of covering the scratch wound areas was monitored in the presence or absence of gintonin (FIG. 25B). In addition, uncovered scratch areas of gintonin-treated groups were compared with that of the control and expressed as % of that of the control (FIGS. 26C and D).
# [2] = system: GPR87, GPR40, GPR41, GPR43 and GPR120; assay: Intracellular free Ca2+ in B103 cells expressing other orphan GPCRs and fatty acid receptors; assay type: cell-based; details: B103 cells expressing the other receptors (GPR87, GPR40, GPR41, GPR43, GPR120)
# Source text: Optionally, the method may further comprise (8) pre-treating the suspended B103 cells with LPA receptor antagonists and LPA receptor-mediated signaling-relevant drugs (e.g., pertussis toxin, PLC inhibitors, IP3 receptor antagonists) to examine whether the cells decrease or increase in intracellular free Ca^2+, prior to treatment with gintonin; (9) performing site-directed mutagenesis to identify an amino acid of LPA receptors with which gintonin interact to activate the LPA; and (10) examining whether gintonin activates orphan GPCRs including GPR35 and GPR87, and free fatty acid GPCRs including GPR40, GPR41, GPR43 and GPR120, all known for activation by LPA.
# In addition, GPR35 (Oka et al., Biochem Biophys Res Commun. 395, 232-237, 2010) and GPR87 (Tabata et al., Biochem Biophys Res Commun. 363, 861-866, 2007), both known as orphan GPCRs reacting with LPA, and GPR40, GPR41, GPR43 and GPR120 (Hirasawa et al., Biol Pharm Bull. 31, 1847-1851, 2008), all known as fatty acid receptors reacting with free fatty acids, were expressed in B103 cells when gintonin activity was tested.
# [3] = target: LPA4 receptor (Homo sapiens, UniProt Q99677); assay: Intracellular free Ca2+ (Fura-2AM) in LPA4-expressing B103 cells; assay type: cell-based; design: host or cells: B103 rat neuroblastoma cells; details: gintonin
# Source text: LPA family receptors are endogenous to cells of most organs. B103 rat neuroblastoma cells, known as LPA receptor-null cells (Valentine et al., Biochim Biophys Acta 1780. 597-605) were transiently transfected with a plasmid (vector) carrying one of genes coding for LPA1(edg-2), LPA2(edg-4), LPA3(edg-7), LPA4, LPA5 and LPA6 receptors or a plasmid carrying none of them (empty vector). Two or three days after transfection, the cells are suspended, and made permeable. Then, the permeable cells are treated with Fura-2AM, a fluorescent dye binding to calcium, and then with gintonin, followed by spectrofluorephotometry to examine whether gintonin induces an increase in intracellular free Ca^2+ level. […]
# Sequence of LPA4 receptor (Q99677 whole entry): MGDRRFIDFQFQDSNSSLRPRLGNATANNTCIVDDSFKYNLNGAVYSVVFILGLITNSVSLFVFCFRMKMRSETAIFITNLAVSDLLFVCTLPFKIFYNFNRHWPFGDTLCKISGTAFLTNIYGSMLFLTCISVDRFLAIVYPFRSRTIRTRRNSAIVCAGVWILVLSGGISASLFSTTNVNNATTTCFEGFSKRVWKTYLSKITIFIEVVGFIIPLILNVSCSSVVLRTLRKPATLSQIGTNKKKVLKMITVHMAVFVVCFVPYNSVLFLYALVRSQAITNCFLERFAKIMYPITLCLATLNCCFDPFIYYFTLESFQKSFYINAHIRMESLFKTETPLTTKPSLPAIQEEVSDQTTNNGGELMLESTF
molecule,measurement,setting,value
B1,covering of scratch wound area,[1],covered the wound area
same,increase of intracellular calcium level,[2],not act on the other receptors
same,increase in intracellular calcium level,[3],61.6 ± 11.8 µM
